The record followed here is patent US20190364907.

Data set [1] concerns the target An. gambiae syntaxin H252N mutant.
The target in data set [2] is An. gambiae syntaxin L271V mutant.
Data set [3] concerns the target An. gambiae syntaxin M257V mutant.
In data set [4] the target is An. gambiae syntaxin Q261E T262R double mutant.
Data set [5] deals with An. gambiae syntaxin T264V Q265S double mutant.
The target of data set [6] is recombinant An. gambiae syntaxin1A fragment.
The target in data set [7] is recombinant human syntaxin1A fragment, Q16623.
Chain of recombinant human syntaxin1A fragment, Q16623 (Q16623 whole entry, looked up, the tested form may be a part): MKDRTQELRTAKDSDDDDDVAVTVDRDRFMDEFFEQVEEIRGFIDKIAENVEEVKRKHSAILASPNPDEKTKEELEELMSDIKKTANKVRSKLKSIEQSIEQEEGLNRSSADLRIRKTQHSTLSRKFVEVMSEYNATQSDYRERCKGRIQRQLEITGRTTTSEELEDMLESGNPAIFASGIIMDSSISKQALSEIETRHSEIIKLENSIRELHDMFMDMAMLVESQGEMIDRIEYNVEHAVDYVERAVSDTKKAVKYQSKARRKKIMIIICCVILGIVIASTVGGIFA

B1: recombinant CMP1 LC (light chain of clostridial mosquitocidal protein 1) (protein)
chain: LQIRVFNYNDPIDGENIVELRYHNRSPVKAFQIVDGIWIIPERYNFTNDTKKVPDDRALTILEDEVFAVRENDYLTTDVNEKNSFLNNITKLFKRINSSNIGNQLLNYISTSVPYPVVSTNSIKARDYNTIKFDSIDGRRITKSANVLIYGPSMKNLLDKQTRAINGEEAKNGIGCLSDIIFSPNYLSVQTVSSSRFVEDPASSLTHELIHALHNLYGIQYPGEEKFKFGGFIDKLLGTRECIDYEEVLTYGGKDSEIIRKKIDKSLYPDDFVNKYGEMYKRIKGSNPYYPDEKKLKQSFLNRMNPFDQNGTFDTKEFKNHLMDLWFGLNESEFAKEKKILVRKHYITKQINPKYTELTNDVYTEDKGFVNGQSIDNQNFKIIDDLISKKVKL
As to B1, the “cleavage of syntaxin mutant (Western blot)” value in data set [1] is “Syntaxin mutants were cleaved with less efficiency than non-mutated syntaxin”; in data set [2] it was “the L271V mutant completely abolished cleavage”; in data set [3], “Syntaxin mutants were cleaved with less efficiency than non-mutated syntaxin”; in data set [4] it was “Syntaxin mutants were cleaved with less efficiency than non-mutated syntaxin”; in data set [5], “Syntaxin mutants were cleaved with less efficiency than non-mutated syntaxin”. The figures for the “cleavage of recombinant SNARE protein (SDS-PAGE / Western blot)” value in data set [6] and in data set [7] were “CMP1 LC cleaves the mosquito syntaxin resulting in a band of lower molecular weight that corresponds to cleavage of C-terminus of syntaxin” and “CMP1 LC was not able to cleave the recombinant human syntaxin1A”, respectively.

B2: catalytically inactive CMP1 LC E209Q mutant (protein)
chain: LQIRVFNYNDPIDGENIVELRYHNRSPVKAFQIVDGIWIIPERYNFTNDTKKVPDDRALTILEDEVFAVRENDYLTTDVNEKNSFLNNITKLFKRINSSNIGNQLLNYISTSVPYPVVSTNSIKARDYNTIKFDSIDGRRITKSANVLIYGPSMKNLLDKQTRAINGEEAKNGIGCLSDIIFSPNYLSVQTVSSSRFVEDPASSLTHQLIHALHNLYGIQYPGEEKFKFGGFIDKLLGTRECIDYEEVLTYGGKDSEIIRKKIDKSLYPDDFVNKYGEMYKRIKGSNPYYPDEKKLKQSFLNRMNPFDQNGTFDTKEFKNHLMDLWFGLNESEFAKEKKILVRKHYITKQINPKYTELTNDVYTEDKGFVNGQSIDNQNFKIIDDLISKKVKL
For the protein B2, the “cleavage of recombinant SNARE protein (SDS-PAGE / Western blot)” value in data set [6] is “no cleavage was observed by the catalytically inactive CMP1 LC E209Q mutant”.
